Data reported in patent publication US20250179215A1, “PLASMIN-BINDING VHHS” (RHEINISCHE FRIEDRICH-WILHELMS-UNIVERSITÄT BONN, priority 2022, published 2025).

B1: VHH A11 including C-terminal His6-tag (VHH)
VHH: QVQLVETGGGLVQAGGSLRLSCAASGNIFSINAMDWYRQAPGKERELVAAITSGGTTNYADSVKGRFTISRDNAKDTVYLQMNSLKPEDAAFYYCNADGYYSDYDKNLAEFNSWGQGTQVTVSS
notes: Alpaca-derived
B2: VHH C5 including C-terminal His6-tag (VHH)
VHH: QVQLVESGGGLVQAGGSLRLSCAASGRRFMVVAMGWYRQAPGNQRELVASITNGGTTNYAGSVKGRFTISGDSAKNTVYLHMNSLKPEDTAVYYCTTDVVFRDGNGQIQSNWGQGTQVTVSS
notes: Alpaca-derived

Assays:
[1] = tested on: citrate-anticoagulated whole blood; assay: Rotational thrombelastometry clot lysis in tPA-spiked whole blood; assay type: biochemical; conditions: tPA-spiked whole blood
Excerpt: To further test the fibrinolysis-activating properties of VHHs in an ex-vivo model of hyperfibrinolysis, a whole blood based assay can be used whereat citrate-anticoagulated whole blood in the presence of VHHs is spiked with tPA and clot formation and the fibrinolysis rate of the formed clot monitored by thrombelastometry after initiation of clotting by addition of CaCl2) solution containing recombinant TF.
FIG. 4. Influence of VHHs on endogenous fibrinolysis. (A) Citrate-anticoagulated whole blood was mixed with VHHs A11 or C5 and with tPA to achieve a final concentration of 0.5 μg/ml and clot formation was induced by addition of CaCl2) (0.2 M). (B) Lysis index at 60 min(C) Maximum lysis rates, and (D) lysis onset time were recorded. Mean values and SD were calculated out of three measurements.
(§1) The impact of VHHs on the fibrinolytic activity in plasma and whole blood was monitored using rotational thrombelastometry using the ROTEM delta system (TEM Innovations Ltd., Munich, Germany). […] After addition of 0.1 μg/ml tPA, coagulation was initiated by addition of recombinant tissue factor (Dade Innovin, Siemens Healthcare, Marburg, Germany) dissolved 1:100 in calcium chloride (0.2 M). The viscoelasticity of the formed clot was measured in terms of key parameters including clotting time, maximal clot firmness, maximum clot elasticity, maximum lysis, lysis index after 60 minutes, and lysis onset time.

plasmin [2] = target: T1, plasmin (Homo sapiens, UniProt P00747); assay: Stability of plasmin (autocatalytic degradation) in activation buffer; assay type: biochemical; conditions: 100 mM TXA or lysine in buffer
T1 construct: human Lys-plasmin which is prepared from homogeneous Glu-plasminogen using uPA; purchased Haematologic Technologies, Inc. (Essex Junction, VT)
T1 sequence (P00747 97-580 limits assumed): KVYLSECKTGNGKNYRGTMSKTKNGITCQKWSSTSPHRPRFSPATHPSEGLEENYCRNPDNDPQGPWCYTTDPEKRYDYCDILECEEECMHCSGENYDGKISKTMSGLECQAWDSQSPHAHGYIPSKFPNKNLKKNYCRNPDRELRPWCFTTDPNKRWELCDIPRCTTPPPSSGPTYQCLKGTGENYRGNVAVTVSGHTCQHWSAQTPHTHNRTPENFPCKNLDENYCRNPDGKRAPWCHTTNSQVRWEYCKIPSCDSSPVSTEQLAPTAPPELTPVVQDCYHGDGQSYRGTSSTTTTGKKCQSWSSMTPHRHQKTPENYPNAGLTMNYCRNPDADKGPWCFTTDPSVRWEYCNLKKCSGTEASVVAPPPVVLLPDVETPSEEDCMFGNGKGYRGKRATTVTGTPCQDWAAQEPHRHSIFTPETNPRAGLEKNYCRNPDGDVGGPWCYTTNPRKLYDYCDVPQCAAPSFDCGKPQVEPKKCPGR
T1 sequence (P00747 581-810 limits assumed): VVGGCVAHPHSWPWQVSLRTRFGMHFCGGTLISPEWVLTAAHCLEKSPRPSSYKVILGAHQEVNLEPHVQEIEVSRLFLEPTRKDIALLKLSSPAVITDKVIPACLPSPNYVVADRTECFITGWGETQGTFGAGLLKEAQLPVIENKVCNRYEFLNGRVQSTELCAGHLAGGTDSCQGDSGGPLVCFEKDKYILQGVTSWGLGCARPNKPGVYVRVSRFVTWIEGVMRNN

plasmin [3] = target: T1, plasmin; assay: Michaelis-Menten kinetics of plasmin-mediated cleavage of fluorogenic peptide substrate; assay type: biochemical; conditions: plasmin 5 nM; VHHs 1 μM, BPTI 3 nM, TXA 7.86 mg/ml; w/o ligand 51.8
Experimental: Subsequently, 50 μl of the fluorogenic substrate (3.16-3,160 μM final concentration in assay buffer) was added. Substrate hydrolysis rates were monitored by kinetic measurements using the Synergy 2 microplate reader. Apparent Michaelis-Menten constants (Km) and the turn-over number (kcat) values for substrate hydrolysis were calculated from best fit values of the Michaelis-Menten equation and the catalytic efficiencies were expressed as ratios of kcat/Km.
CI, confidence interval. ^a The turnover number (kcat) was calculated using Vmax values extracted from Michaelis-Menten least squares fit.

plasmin [4] = target: T1, plasmin; assay: Activated factor V-inactivation assay (prothrombinase assay); assay type: biochemical
Experimental: FIG. 6. (A) Influence of VHHs on plasmin-mediated FVa cleavage. Plasmin (1.5 nM) was incubated with increasing concentrations of VHHs for 30 min at 37° C. After addition of FVa (30 pM) and further incubation for 30 min, FXa (0.52 pM), prothrombin (10 nM) and a fluorogenic thrombin substrate (100 μM) were added and the FVa-dependent thrombin generation was measured. The FVa inactivation rate measured in the absence of VHHs or plasmin inhibitors was set as 100%. […] The data are presented as mean±SD of two independent measurements.
Plasmin-mediated inactivation of activated factor V (FVa) was measured using a prothrombinase assay as recently described (Hamedani 2020). Briefly, 1.5 nM plasmin in assay buffer (20 mM Tris-HCl, 137 mM NaCl, 10 mg/ml phospholipids, 5 mM CaCl2, 1 mg/ml BSA, pH 7.4) was preincubated with VHHs (0.1 nM-10 μM final concentrations) for 30 min at 37° C. Then, 60 μl of the mixture were mixed with 60 μl of […] FVa. After further incubation for 30 min, 25 μl of the reaction mixture were mixed with 50 μl of 1.3 μM human FXa and 100 μM fluorogenic thrombin substrate (Boc-Asp(OBzl)-Pro-Arg-AMC) and 50 μl of 10 nM human prothrombin. Thrombin catalyzed substrate hydrolysis was monitored at λex of 360 nm and λem of 460 nm using the Synergy 2 microplate reader.

plasminogen = target: T2, plasminogen (Homo sapiens, UniProt P00747); assay: Plasmin generation assay (tPA-mediated plasminogen activation, purified system); assay type: biochemical; conditions: at the assessed / higher concentrations
T2 construct: Plasma derived human Glu-plasminogen; purchased Haematologic Technologies, Inc. (plasminogen); Boehringer Ingelheim (tPA)
T2 sequence (P00747 20-810 limits assumed): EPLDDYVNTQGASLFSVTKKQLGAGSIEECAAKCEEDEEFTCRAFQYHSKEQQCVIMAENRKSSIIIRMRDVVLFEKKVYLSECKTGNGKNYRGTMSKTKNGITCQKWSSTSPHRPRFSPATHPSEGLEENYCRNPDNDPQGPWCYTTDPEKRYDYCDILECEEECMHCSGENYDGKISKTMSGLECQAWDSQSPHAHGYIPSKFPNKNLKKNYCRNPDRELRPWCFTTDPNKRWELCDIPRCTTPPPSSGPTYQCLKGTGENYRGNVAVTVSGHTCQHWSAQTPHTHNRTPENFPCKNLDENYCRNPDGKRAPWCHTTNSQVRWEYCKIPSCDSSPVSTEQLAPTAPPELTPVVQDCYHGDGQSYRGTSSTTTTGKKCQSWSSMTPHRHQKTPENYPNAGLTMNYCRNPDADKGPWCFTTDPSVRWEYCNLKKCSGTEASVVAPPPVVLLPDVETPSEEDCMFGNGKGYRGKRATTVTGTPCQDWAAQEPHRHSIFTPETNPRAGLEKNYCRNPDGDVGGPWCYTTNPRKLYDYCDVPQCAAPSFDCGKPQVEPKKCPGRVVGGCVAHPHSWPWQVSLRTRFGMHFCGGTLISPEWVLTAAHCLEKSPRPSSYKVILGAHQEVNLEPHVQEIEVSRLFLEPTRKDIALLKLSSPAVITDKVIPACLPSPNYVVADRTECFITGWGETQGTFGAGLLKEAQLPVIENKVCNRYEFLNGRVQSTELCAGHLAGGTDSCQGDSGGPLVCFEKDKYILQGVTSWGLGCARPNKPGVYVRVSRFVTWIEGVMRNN
Experimental: In order to assess the influence of VHHs on tPA-mediated plasminogen activation, plasminogen was preincubated with increasing concentrations of VHHs. After addition of tPA, plasmin generation was measured over time using a fluorogenic plasmin peptide substrate.
FIG. 5. Influence of VHHs on tPA-mediated plasminogen activation. […] After addition of tPA (10 nM final concentration) plasmin generation was measured over time using the fluorogenic plasmin assay. The data are presented as mean±SD of three independent measurements.
Plasminogen (50 nM) was incubated with VHHs (2 μM to 0.2 μM) for 30 min at 37° C. in assay buffer. Subsequently, 20 μl of 50 nM tPA was added to the mixture and incubated at 37° C. After 3 hours of incubation at 37° C., 50 μl of the mixture were transferred to the wells of black F16 Fluoronunc modules and after addition of 50 μl of the plasmin-specific fluorogenic substrate (800 μM) fluorescence intensities were measured at λex of 360 nm and λem of 460 nm using the Synergy 2 microplate reader.

[5] = tested on: citrate-anticoagulated pooled normal human plasma; assay: Rotational thrombelastometry clot formation parameters in plasma; assay type: biochemical; conditions: VHHs or BPTI 2.4 μM, TXA 2.4 μg/ml; tPA 0.1 μg/ml
Experimental: FIG. 10. The impact of VHHs on the clot formation parameters in plasma monitored by rotational thrombelastometry. […] After addition of tPA to reach a final concentration of 0.1 μg/ml, coagulation was initiated by addition of recombinant tissue factor (Dade® Innovin®) dissolved 1:100 in calcium chloride solution (0.2 M). The viscoelasticity of the formed clot was measured in terms of (A) clotting time, (B) maximum clot firmness, and (C) maximum clot elasticity. A non-binder VHH (GFP-enhancer VHH) was used as negative control. Mean values and SD were calculated out of three measurements.
as §1

human plasmin [6] = target: T3, human plasmin (human, UniProt P00747 97-580; P00747 581-810); assay: competition ELISA: C5 coated on the plate (10 µg/ml), plasmin 10 nM with free A11 as competitor of immobilized C5; bound plasmin read by hydrolysis of a fluorogenic substrate
T3 construct: domain: heavy chain or A-chain;domain: light chain that contains the serine protease domain; Two-chain protease derived from plasminogen; also called PLM; human Lys-plasmin
T3 sequence (P00747 97-580 limits assumed, chain 1 of 2): as the sequence (P00747 97-580 limits assumed) above
T3 sequence (P00747 581-810 limits assumed, chain 2 of 2): as the sequence (P00747 581-810 limits assumed) above
Experimental: (§2) FIG. 2. VHHs competition ELISA. […] Data represent the mean±SD of two measurements.
(§3) To assess the competition of VHHs for similar or overlapping binding sites on the plasmin molecule, a competition ELISA was performed. Microtiter (96-well) plates were coated with VHHs (10 μg/ml in coating buffer, 100 μl/well) at 2-8° C. overnight. Wells were washed and non-specific protein-binding sites were blocked with 20 mg/ml bovine serum albumine (BSA) for 2 h at RT. After removing the blocking buffer, wells were overlaid with a reaction mixture containing plasmin (10 nM) and VHHs (0.316 nM-31.6 μM) in buffer (20 mM HEPES, 154 mM NaCl, BSA 1 mg/ml, pH 7.4) for 30 min at RT. After washing the amount of bound plasmin was quantified through hydrolysis rates of the fluorogenic plasmin substrate (300 μM, 100 μl/well). The fluorescence intensity measured in the absence of free VHHs was set as 100%.

human plasmin [7] = target: T3, human plasmin; assay: cell-based or functional assay
mouse plasminogen = target: T4, mouse plasminogen (mouse, UniProt P20918 20-812); assay: BLI (BLItz), His-tagged VHH on anti-HIS biosensor
T4 construct: mature; also called mouse Glu-plasminogen
T4 sequence (P20918 20-812 limits assumed): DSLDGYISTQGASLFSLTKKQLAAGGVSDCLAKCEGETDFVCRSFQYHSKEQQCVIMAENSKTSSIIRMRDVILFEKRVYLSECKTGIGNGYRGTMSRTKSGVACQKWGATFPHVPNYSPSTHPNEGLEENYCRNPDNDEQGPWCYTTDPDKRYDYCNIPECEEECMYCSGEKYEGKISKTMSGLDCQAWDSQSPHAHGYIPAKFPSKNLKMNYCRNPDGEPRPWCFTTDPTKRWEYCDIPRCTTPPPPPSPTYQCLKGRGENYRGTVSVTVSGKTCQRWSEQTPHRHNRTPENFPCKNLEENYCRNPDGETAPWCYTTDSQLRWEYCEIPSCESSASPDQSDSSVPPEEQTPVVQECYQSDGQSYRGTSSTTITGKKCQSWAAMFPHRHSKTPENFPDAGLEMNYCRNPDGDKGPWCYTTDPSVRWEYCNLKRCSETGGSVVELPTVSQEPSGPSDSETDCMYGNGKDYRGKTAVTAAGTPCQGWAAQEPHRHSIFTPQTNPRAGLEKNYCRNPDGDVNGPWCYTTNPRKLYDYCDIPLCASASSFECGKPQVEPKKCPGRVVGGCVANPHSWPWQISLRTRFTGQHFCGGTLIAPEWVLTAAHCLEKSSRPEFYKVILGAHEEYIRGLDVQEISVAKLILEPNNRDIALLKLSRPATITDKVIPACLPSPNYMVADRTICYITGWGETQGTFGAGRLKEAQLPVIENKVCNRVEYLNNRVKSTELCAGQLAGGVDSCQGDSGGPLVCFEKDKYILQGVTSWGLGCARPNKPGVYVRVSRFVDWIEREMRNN

human plasminogen = target: T5, human plasminogen (human, UniProt P00747 20-810); assay: BLI (BLItz), His-tagged VHH on anti-HIS biosensor
T5 construct: mature; Purchased plasma-derived Glu-plasminogen or in-house plasma-purified plasminogen; also called human PLG; plasma derived human Glu-plasminogen
T5 sequence (P00747 20-810 limits assumed): as the sequence (P00747 20-810 limits assumed) above

[8] = target: T6, tissue plasminogen activator (recombinant tPA, Actilyse) (UniProt P00750 36-562); assay: BLI (BLItz), His-tagged VHH on anti-HIS biosensor
T6 construct: Actilyse is recombinant human tPA (alteplase)
T6 sequence (P00750 36-562 limits assumed): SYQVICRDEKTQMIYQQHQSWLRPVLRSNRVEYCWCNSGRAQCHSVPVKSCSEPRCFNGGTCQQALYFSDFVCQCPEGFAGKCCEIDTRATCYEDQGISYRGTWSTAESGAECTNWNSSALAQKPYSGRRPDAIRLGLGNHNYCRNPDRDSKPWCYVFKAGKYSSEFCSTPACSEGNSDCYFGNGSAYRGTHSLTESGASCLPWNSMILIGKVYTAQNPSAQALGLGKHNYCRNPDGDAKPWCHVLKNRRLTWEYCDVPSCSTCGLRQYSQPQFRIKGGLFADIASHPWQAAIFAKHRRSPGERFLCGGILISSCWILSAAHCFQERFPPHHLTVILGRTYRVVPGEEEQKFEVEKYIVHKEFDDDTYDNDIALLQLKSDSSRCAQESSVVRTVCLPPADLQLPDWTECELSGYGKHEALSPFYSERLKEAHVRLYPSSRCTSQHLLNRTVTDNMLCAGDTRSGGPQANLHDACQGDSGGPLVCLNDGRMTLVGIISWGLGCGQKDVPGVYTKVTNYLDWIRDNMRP

human plasmin [9] = target: T3, human plasmin; assay: BLI (BLItz), His-tagged VHH on anti-HIS biosensor
mouse plasmin = target: T7, mouse plasmin (mouse, UniProt P20918 98-581; P20918 582-812); assay: BLI (BLItz), His-tagged VHH on anti-HIS biosensor
T7 construct: domain: heavy chain or A-chain;domain: light chain that contains the serine protease domain; Purchased from Haematologic Technologies
T7 sequence (P20918 98-581 limits assumed, chain 1 of 2): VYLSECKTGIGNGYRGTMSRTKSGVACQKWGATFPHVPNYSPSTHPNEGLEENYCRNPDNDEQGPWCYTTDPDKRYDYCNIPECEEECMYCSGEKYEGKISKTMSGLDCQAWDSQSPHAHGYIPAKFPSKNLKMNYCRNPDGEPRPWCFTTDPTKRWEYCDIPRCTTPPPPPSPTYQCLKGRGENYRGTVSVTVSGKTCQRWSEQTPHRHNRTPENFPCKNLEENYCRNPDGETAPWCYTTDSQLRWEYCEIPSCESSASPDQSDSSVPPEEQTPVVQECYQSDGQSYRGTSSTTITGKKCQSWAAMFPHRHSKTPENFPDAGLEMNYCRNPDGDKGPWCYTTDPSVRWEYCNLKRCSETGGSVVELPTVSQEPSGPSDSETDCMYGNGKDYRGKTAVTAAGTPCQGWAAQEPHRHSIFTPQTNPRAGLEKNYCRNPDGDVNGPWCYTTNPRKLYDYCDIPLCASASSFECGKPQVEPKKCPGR
T7 sequence (P20918 582-812 limits assumed, chain 2 of 2): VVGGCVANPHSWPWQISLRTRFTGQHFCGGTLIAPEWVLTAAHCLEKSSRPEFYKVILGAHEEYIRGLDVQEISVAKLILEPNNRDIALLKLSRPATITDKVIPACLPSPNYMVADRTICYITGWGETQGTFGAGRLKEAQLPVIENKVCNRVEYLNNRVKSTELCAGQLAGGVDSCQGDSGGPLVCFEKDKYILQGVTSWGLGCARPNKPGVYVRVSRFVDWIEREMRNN

human plasmin [10] = target: T3, human plasmin; assay: competition ELISA: A11 coated on the plate (10 µg/ml), plasmin 10 nM with free A11 (self-competition); bound plasmin read by hydrolysis of a fluorogenic substrate
Experimental: as §2, §3

human plasmin [11] = target: T3, human plasmin; assay: cell-based or functional assay; remark: listed apart in the source
human plasmin [12] = target: T3, human plasmin; assay: competition ELISA: A11 coated on the plate (10 µg/ml), plasmin 10 nM with free C5 as competitor of immobilized A11; bound plasmin read by hydrolysis of a fluorogenic substrate
Experimental: as §2, §3

human plasmin [13] = target: T3, human plasmin; assay: competition ELISA: C5 coated on the plate (10 µg/ml), plasmin 10 nM with free C5 (self-competition); bound plasmin read by hydrolysis of a fluorogenic substrate
Experimental: as §2, §3

Row | Molecule | effect on lysis compared to VHHs (FIG. 4C, maximum lysis rates) [1] | protection of plasmin from autocatalytic degradation (plasmin [2]) | kcat × 10^3 (s^−1) mean (95% CI) (plasmin [3]) | maximal rate of inhibition of plasmin-mediated cleavage of FVa (plasmin [4]; TXA 316 μM or higher) [%] | FVa cleavage at lower TXA concentrations (plasmin [4]; lower TXA concentrations) | inhibition of plasmin generation at higher concentrations (plasminogen) | effect on fibrin clot formation parameters (clotting time, maximum clot firmness, maximum clot elasticity) [5] | IC50 (read off the curve) (human plasmin [6]) [nM] | Kcat/Km of plasmin-mediated cleavage of fluorogenic peptide substrate, VHH 1 µM (human plasmin [7]) [M⁻¹ s⁻¹] | kcat of plasmin-mediated cleavage of fluorogenic peptide substrate, VHH 1 µM (human plasmin [7]) [s⁻¹] | Kd (mouse plasminogen) [nM] | Kd (human plasminogen) [nM] | Kd [8] [nM] | Kd (human plasmin [9]) [nM] | Kd (mouse plasmin) [nM] | IC50 (read off the curve) (human plasmin [10]) [nM] | increase in plasmin peptide substrate conversion, at molar ratio of VHH over plasmin of 158 (human plasmin [11]) [fold] | IC50 (read off the curve) (human plasmin [12]) [nM] | IC50 (read off the curve) (human plasmin [13]) [nM] | increase in plasmin peptide substrate conversion, at molar ratio of VHH over plasmin of 500 (human plasmin [11]) [fold]
1 | NC[C@H]1CC[C@H](C(=O)O)CC1 [TXA, tranexamic acid, reference compound] | inhibition of lysis | more effective than lysine | 42.1 (40-44) s^−1 | 48 | accelerated | plasmin generation is blocked | does not affect | – | – | – | – | – | – | – | – | – | – | – | – | –
2 | B1 | – | – | – | – | – | – | – | ~1000 | 2.28e+08 | 67200 | > 1000 | > 100 | 941 | 4.7 | 87.3 | ~500 | ~2.5 | – | – | –
3 | B2 | – | – | – | – | – | – | – | – | 2.44e+08 | 69900 | > 1000 | > 100 | 213 | 6.8 | 172 | – | – | ~500 | ~2000 | ~2.5
